Assay results published in patent publication US20260199463A1 (CENTURY THERAPEUTICS, published 2026).

B1: MARS SP_NEC_M_8_P3107_CD8 Hinge_CD28 tm_41BB_CD3Z (other)
chain: EVQLLESGGGLVQPGGSLRLSCAASGFTFSSYAMGWYRQAPGKEREFVSSISGSGGLTRYADSVKGRFTISRDNSKNTLYLQMNSLKPEDTAVYYCAVTTGYQGGVYDYWGQGTQVTVSSTTTPAPRPPTPAPTIASQPLSLRPEACRPAAGGAVHTRGLDFACDFWVLVVVGGVLACYSLLVTVAFIIFWVKRGRKKLLYIFKQPFMRPVQTTQEEDGCSCRFPEEEEGGCELRVKFSRSADAPAYQQGQNQLYNELNLGRREEYDVLDKRRGRDPEMGGKPRRKNPQEGLYNELQKDKMAEAYSEIGMKGERRRGKGHDGLYQGLSTATKDTYDALHMQALPPR
notes: Chimeric antigen receptor on transduced Nurkat cells or primary T cells
B2: NEC_S_16 (VHH)
VHH: EVQLLESGGGLVQPGGSLRLSCAASGFTFSDYYMGWYRQAPGKEREFVSAISSTGGSPYYADSVKGRFTISRDNSKNTLYLQMNSLKPEDTAVYYCAVEVPYDYWGQGTQVTVSS
notes: Periplasmic extract (PPE) of a panning clone
B3: NEC_S_64 (VHH)
VHH: EVQLLESGGGLVQPGGSLRLSCAASGFAYSSYYMGWYRQAPGKEREFVSAISSSGGGTYYADSVKGRFTISRDNSKNTLYLQMNSLKPEDTAVYYCAVELTYNYWGQGTQVTVSS
notes: as for B2
B4: MARS SP_NEC_M_46_P3110_CD8 Hinge_CD28 tm_41BB_CD3Z (other)
chain: EVQLLESGGGLVQPGGSLRLSCAASGYTFSDYAMGWYRQAPGKERELVSSISGSGGSTRYADSVKGRFTISRDNSKNTLYLQMNSLKPEDTAVYYCAAVIRQPSTGFYEYWGQGTQVTVSSTTTPAPRPPTPAPTIASQPLSLRPEACRPAAGGAVHTRGLDFACDFWVLVVVGGVLACYSLLVTVAFIIFWVKRGRKKLLYIFKQPFMRPVQTTQEEDGCSCRFPEEEEGGCELRVKFSRSADAPAYQQGQNQLYNELNLGRREEYDVLDKRRGRDPEMGGKPRRKNPQEGLYNELQKDKMAEAYSEIGMKGERRRGKGHDGLYQGLSTATKDTYDALHMQALPPR
notes: as for B1
B5: NEC_S_31 (VHH)
VHH: EVQLLESGGGLVQPGGSLRLSCAASGFTYSSYAMGWYRQAPGKERELVSSISGSGGSTRYADSVKGRFTISRDNSKNTLYLQMNSLKPEDTAVYYCAVAIGVGDYWGQGTQVTVSS
notes: as for B2
B6: NEC_S_56 (VHH)
VHH: EVQLLESGGGLVQPGGSLRLSCAASGLTLSSYAMGWFRQAPGKERELVSSISGSGGSTRYADSVKGRFTISRDNSKNTLYLQMNSLKPEDTAVYYCAVDIRLTDYWGQGTQVTVSS
notes: as for B2
B7: NEC_S_5 (VHH)
VHH: EVQLLESGGGLVQPGGSLRLSCAASGLTFRYNAMGWYRQAPGKEREFVSAISGSGGGTYYADSVKGRFTISRDNSKNTLYLQMNSLKPEDTAVYYCAAEGLYDYWGQGTQVTVSS
notes: as for B2
B8: NEC_M_82 (VHH)
VHH: EVQLLESGGGLVQPGGSLRLSCAASGFTYSDYAMGWYRQAPGKERELVSAISSYGGVTNYADSVKGRFTISRDNSKNTLYLQMNSLKPEDTAVYYCAAYGALSIRGYDYWGQGTQVTVSS
notes: as for B2
B9: NEC_M_66 (VHH)
VHH: EVQLLESGGGLVQPGGSLRLSCAASGFAYSSYSIGWYRQAPGKERELVSAISGSGGSSRYADSVKGRFTISRDNSKNTLYLQMNSLKPEDTAVYYCAAIAYVYTSTARNYWGQGTQVTVSS
notes: as for B2
B10: NEC_M_44 (VHH)
VHH: EVQLLESGGGLVQPGGSLRLSCAASGRTLSSYAMGWYRQAPGKERELVSSISGSGGSTRYADSVKGRFTISRDNSKNTLYLQMNSLKPEDTAVYYCAVYILELAPGAEYWGQGTQVTVSS
notes: as for B2
B11: MARS SP_NEC_M_44_P3109_CD8 Hinge_CD28 tm_41BB_CD3Z (other)
chain: EVQLLESGGGLVQPGGSLRLSCAASGRTLSSYAMGWYRQAPGKERELVSSISGSGGSTRYADSVKGRFTISRDNSKNTLYLQMNSLKPEDTAVYYCAVYILELAPGAEYWGQGTQVTVSSTTTPAPRPPTPAPTIASQPLSLRPEACRPAAGGAVHTRGLDFACDFWVLVVVGGVLACYSLLVTVAFIIFWVKRGRKKLLYIFKQPFMRPVQTTQEEDGCSCRFPEEEEGGCELRVKFSRSADAPAYQQGQNQLYNELNLGRREEYDVLDKRRGRDPEMGGKPRRKNPQEGLYNELQKDKMAEAYSEIGMKGERRRGKGHDGLYQGLSTATKDTYDALHMQALPPR
notes: as for B1
B12: NEC_M_29 (VHH)
VHH: EVQLLESGGGLVQPGGSLRLSCAASGFTYTSYVMGWYRQAPGKERELVSAIYGSAGSGYYADSVKGRFTISRDNSKNTLYLQMNSLKPEDTAVYYCARVTTTTHLWSAEYWGQGTQVTVSS
notes: as for B2
B13: NEC_M_21 (VHH)
VHH: EVQLLESGGGLVQPGGSLRLSCAASGLTFSSNAMGWYRQAPGKERELVSSISGSGGSTNYADSVKGRFTISRDNSKNTLYLQMNSLKPEDTAVYYCAAEIATYYDFADYWGQGTQVTVSS
notes: as for B2
B14: NEC_S_55 (VHH)
VHH: EVQLLESGGGLVQPGGSLRLSCAASGFTLSSYAMGWYRQAPGKERELVSSISGSGGSTRYADSVKGRFTISRDNSKNTLYLQMNSLKPEDTAVYYCAAYIGGDYLGQGTQVTVSS
notes: as for B2
B15: NEC_M_5 (VHH)
VHH: EVQLLESGGGLVQPGGSLRLSCAASGLSFSSYSMGWYRQAPGKEREFVSAISGSSGSTNYADSVKGRFTISRDNSKNTLYLQMNSLKPEDTAVYYCAAEHRVTTSGVFYDYWGQGTQVTVSS
notes: as for B2
B16: MARS SP_NEC_S_31_P3113_CD8 Hinge_CD28 tm_41BB_CD3Z (other)
chain: EVQLLESGGGLVQPGGSLRLSCAASGFTYSSYAMGWYRQAPGKERELVSSISGSGGSTRYADSVKGRFTISRDNSKNTLYLQMNSLKPEDTAVYYCAVAIGVGDYWGQGTQVTVSSTTTPAPRPPTPAPTIASQPLSLRPEACRPAAGGAVHTRGLDFACDFWVLVVVGGVLACYSLLVTVAFIIFWVKRGRKKLLYIFKQPFMRPVQTTQEEDGCSCRFPEEEEGGCELRVKFSRSADAPAYQQGQNQLYNELNLGRREEYDVLDKRRGRDPEMGGKPRRKNPQEGLYNELQKDKMAEAYSEIGMKGERRRGKGHDGLYQGLSTATKDTYDALHMQALPPR
notes: as for B1
B17: NEC_M_46 (VHH)
VHH: EVQLLESGGGLVQPGGSLRLSCAASGYTFSDYAMGWYRQAPGKERELVSSISGSGGSTRYADSVKGRFTISRDNSKNTLYLQMNSLKPEDTAVYYCAAVIRQPSTGFYEYWGQGTQVTVSS
notes: as for B2
B18: NEC_M_17 (VHH)
VHH: EVQLLESGGGLVQPGGSLRLSCAASGFTYSGYAMGWYRQAPGKERELVSSISGSGTLTSYADSVKGRFTISRDNSKNTLYLQMNSLKPEDTAVYYCDVDIPVGDATTVGDYWGQGTQVTVSS
notes: as for B2
B19: NEC_S_11 (VHH)
VHH: EVQLLESGGGLVQPGGSLRLSCAASGLTSSGYAMGWYRQAPGKERELVSSISSSGGLTHYADSVKGRFTISRDNSKNTLYLQMNSLKPEDTAVYYCDADIAYTGADYWGQGTQVTVSS
notes: as for B2
B20: NEC_S_2 (VHH)
VHH: EVQLLESGGGLVQPGGSLRLSCAASGSTFSSNAMGWYRQAPGKERELVSSISGSGGSTRYADSVKGRFTISRDNSKNTLYLQMNSLKPEDTAVYYCASYVLYLREYWGQGTQVTVSS
notes: as for B2
B21: NEC_M_84 (VHH)
VHH: EVQLLESGGGLVQPGGSLRLSCAASGFAFSIDAMGWYRQAPGKEREGVSSISGSGGLTRYADSVKGRFTISRDNSKNTLYLQMNSLKPEDTAVYYCDTAVLTGYSEAFDYWGQGTQVTVSS
notes: as for B2
B22: NEC_M_8 (VHH)
VHH: EVQLLESGGGLVQPGGSLRLSCAASGFTFSSYAMGWYRQAPGKEREFVSSISGSGGLTRYADSVKGRFTISRDNSKNTLYLQMNSLKPEDTAVYYCAVTTGYQGGVYDYWGQGTQVTVSS
notes: as for B2
B23: MARS SP_NEC_M_5_P3106_CD8 Hinge_CD28 tm_41BB_CD3Z (other)
chain: EVQLLESGGGLVQPGGSLRLSCAASGLSFSSYSMGWYRQAPGKEREFVSAISGSSGSTNYADSVKGRFTISRDNSKNTLYLQMNSLKPEDTAVYYCAAEHRVTTSGVFYDYWGQGTQVTVSSTTTPAPRPPTPAPTIASQPLSLRPEACRPAAGGAVHTRGLDFACDFWVLVVVGGVLACYSLLVTVAFIIFWVKRGRKKLLYIFKQPFMRPVQTTQEEDGCSCRFPEEEEGGCELRVKFSRSADAPAYQQGQNQLYNELNLGRREEYDVLDKRRGRDPEMGGKPRRKNPQEGLYNELQKDKMAEAYSEIGMKGERRRGKGHDGLYQGLSTATKDTYDALHMQALPPR
notes: as for B1

Tests used:
[1] = target: T1, Nectin4-HIS protein (AcroBiosystems #NE4-H52H3) (UniProt Q96NY8 32-349); assay: flow cytometry, Nectin4-HIS at 2 ug/ml on CAR-transduced Nurkat cells
T1 construct: Bought protein; also called Nectin4 protein; recombinant Nectin4-HIS protein; not shown: His tag
T1 sequence (looked up): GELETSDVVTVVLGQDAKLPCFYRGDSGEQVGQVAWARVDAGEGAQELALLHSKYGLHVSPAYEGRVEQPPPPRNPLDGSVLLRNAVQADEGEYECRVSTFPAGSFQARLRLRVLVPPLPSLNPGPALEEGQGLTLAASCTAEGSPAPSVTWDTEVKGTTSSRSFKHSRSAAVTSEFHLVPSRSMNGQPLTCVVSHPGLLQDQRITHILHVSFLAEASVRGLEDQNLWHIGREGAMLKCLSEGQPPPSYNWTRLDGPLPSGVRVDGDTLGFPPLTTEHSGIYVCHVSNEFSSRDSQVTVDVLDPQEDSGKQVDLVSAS

[2] = target: T1, Nectin4-HIS protein (AcroBiosystems …); assay: ELISA, periplasmic extract on plate-bound Nectin4 (1 ug/mL), anti-Flag:HRP detection
Method: ELISA: 8 Maxisorp plates were coated with 100 uL/well Nectin4 at 1 ug/mL overnight at 4° C. Plates were emptied, and 200 uL/well SuperBlock was added to all plates, and incubated for 1 hour at RT. The plate was washed 1× with TBST on the Aquamax plate washer. 60 μL of anti-Flag:HRP (1:10,000 in PBS-T with 1:10 Superblock) was added per well to a V-bottom plate for each library screening plate. 60 uL/well PPE was added per well to the V-bottom plates and incubated for 1 hour at RT. 50 μL of the PPE/Anti-Flag mix was transferred to each ELISA plate and incubated for 1 hour at RT. The plate was washed 3× with TBST on the Aquamax plate washer. 50 uL/well TMB Ultra solution was added and incubated at RT for 30 minutes, until the wells appeared blue. 50 uL/well stop solution was added and absorbance at 450 nm was read on the Spectramax i3× plate reader. 54 unique clones were identified from the two libraries. A subset of 20 clones was selected from V2S and V2 M for cloning into P201 (SEQ ID Nos. 111-130).

binding result [1]	binding result [2]	Binder
binds		B1
	binds	B2
	binds	B3
binds		B4
	binds	B5
	binds	B6
	binds	B7
	binds	B8
	binds	B9
	binds	B10
binds		B11
	binds	B12
	binds	B13
	binds	B14
	binds	B15
binds		B16
	binds	B17
	binds	B18
	binds	B19
	binds	B20
	binds	B21
	binds	B22
binds		B23
